Source: patent US20030092613A1, “Alpha7 nicotinic receptor peptides as ligands for beta amyloid peptides” (priority 2000, published 2003)

Molecular target: β-amyloid1-42 (UniProt P05067)
Test: cell-based or functional assay

Substance	ACh rel % Inh @ 100 µM [%]	Inh ACh rel IC50 [µM]
(Ac)YECC-amide (peptide)	62	< 10
(Ac)FYEC (peptide)	54	< 10
